Test results from paper PMC8103107 (2021).

Target: recombinant NRP1-derived trap consisting of the extracellular domain of NRP1 (UniProt O14786 22-856)
Experiment: SPR

Chain of recombinant NRP1-derived trap consisting of the extracellular domain of NRP1 (O14786 22-856): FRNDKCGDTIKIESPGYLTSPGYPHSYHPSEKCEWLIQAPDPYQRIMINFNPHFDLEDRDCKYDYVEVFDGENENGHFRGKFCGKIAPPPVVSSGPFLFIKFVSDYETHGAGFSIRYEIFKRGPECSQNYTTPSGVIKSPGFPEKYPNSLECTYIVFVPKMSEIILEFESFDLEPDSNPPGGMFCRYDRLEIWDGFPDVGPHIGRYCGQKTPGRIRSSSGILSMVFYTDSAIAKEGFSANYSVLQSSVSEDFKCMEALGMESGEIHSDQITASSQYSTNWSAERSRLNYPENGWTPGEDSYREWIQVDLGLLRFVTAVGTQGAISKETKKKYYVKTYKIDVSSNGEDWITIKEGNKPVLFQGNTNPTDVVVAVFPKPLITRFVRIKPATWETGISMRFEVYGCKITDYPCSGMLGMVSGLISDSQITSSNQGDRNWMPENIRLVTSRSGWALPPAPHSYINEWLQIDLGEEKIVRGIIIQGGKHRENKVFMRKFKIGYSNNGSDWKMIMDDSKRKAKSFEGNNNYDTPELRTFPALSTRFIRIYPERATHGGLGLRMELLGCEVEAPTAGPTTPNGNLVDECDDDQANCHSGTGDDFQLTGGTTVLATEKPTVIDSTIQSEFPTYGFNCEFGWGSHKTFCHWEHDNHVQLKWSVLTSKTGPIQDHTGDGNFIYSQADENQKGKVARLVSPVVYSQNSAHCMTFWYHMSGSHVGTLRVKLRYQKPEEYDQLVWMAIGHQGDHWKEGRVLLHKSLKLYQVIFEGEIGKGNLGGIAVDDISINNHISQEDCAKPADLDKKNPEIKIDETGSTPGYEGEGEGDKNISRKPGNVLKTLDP

| Binder | koff [s⁻¹] |
| --- | --- |
| Semaphorin 3A (ligand) NYQNGKNNVPRLKLSYKEMLESNNVITFNGLANSSSYHTFLLDEERSRLYVGAKDHIFSFDLVNIKDFQKIVWPVSYTRRDECKWAGKDILKECANFIKVLKAYNQTHLYACGTGAFHPICTYIEIGHHPEDNIFKLENSHFENGRGKSPYDPKLLTASLLIDGELYSGTAADFMGRDFAIFRTLGHHHPIRTEQHDSRWLNDPKFISAHLISESDNPEDDKVYFFFRENAIDGEHSGKATHARIGQICKNDFGGHRSLVNKWTTFLKARLICSVPGPNGIDTHFDELQDVFLMNFKDPKNPVVYGVFTTSSNIFKGSAVCMYSMSDVRRVFLGPYAHRDGPNYQWVPYQGRVPYPRPGTCPSKTFGGFDSTKDLPDDVITFARSHPAMYNPVFPMNNRPIVIKTDVNYQFTQIVVDRVDAEDGQYDVMFIGTDVGTVLKVVSIPKETWYDLEEVLLEEMTVFREPTAISAMELSTKQQQLYIGSTAGVAQLPLHRCDIYGKACAECCLARDPYCAWDGSACSRYFPTAKRRTRRQDIRNGDPLTHCSDLHHDNHHGHSPEERIIYGVENSSTFLECSPKSQRALVYWQFQRRNEERKEEIRVDDHIIRTDQGLLLRSLQQKDSGNYLCHAVEHGFIQTLLKVTLEVIDTEHLEELLHKDDDGDGSKTKEMSNSMTPSQKVWYRDFMQLINHPNLNTMDEFCEQVWKRDRKQRRQRPGHTPGNSNKWKHLQENKKGRNRRTHEFERAPRSV | 0.000155 |
| vascular endothelial growth factor A (ligand, Assumed to be VEGF165, the customary recombinant product, because the isoform is not printed. Mature residues 1-165 equal entry residues 207-395 with the exon 6a region 321-345 replaced by the splice-junction Asn. K321N is this natural splice residue, not an engineered mutation. Disulfide-linked antiparallel homodimer.) APMAEGGGQNHHEVVKFMDVYQRSYCHPIETLVDIFQEYPDEIEYIFKPSCVPLMRCGGCCNDEGLECVPTEESNITMQIMRIKPHQGQHIGEMSFLQHNKCECRPKKDRARQENPCGPCSERRKHLFVQDPQTCKCSCKNTDSRCKARQLELNERTCRCDKPRR | 0.0012 |
